Molecular target: human DLL3 on DLL3-expressing tumor cell lines (human) (UniProt Q9NYJ7)
Test: cell-based or functional assay

Chain of human DLL3 on DLL3-expressing tumor cell lines (human) (Q9NYJ7 27-618 limits assumed): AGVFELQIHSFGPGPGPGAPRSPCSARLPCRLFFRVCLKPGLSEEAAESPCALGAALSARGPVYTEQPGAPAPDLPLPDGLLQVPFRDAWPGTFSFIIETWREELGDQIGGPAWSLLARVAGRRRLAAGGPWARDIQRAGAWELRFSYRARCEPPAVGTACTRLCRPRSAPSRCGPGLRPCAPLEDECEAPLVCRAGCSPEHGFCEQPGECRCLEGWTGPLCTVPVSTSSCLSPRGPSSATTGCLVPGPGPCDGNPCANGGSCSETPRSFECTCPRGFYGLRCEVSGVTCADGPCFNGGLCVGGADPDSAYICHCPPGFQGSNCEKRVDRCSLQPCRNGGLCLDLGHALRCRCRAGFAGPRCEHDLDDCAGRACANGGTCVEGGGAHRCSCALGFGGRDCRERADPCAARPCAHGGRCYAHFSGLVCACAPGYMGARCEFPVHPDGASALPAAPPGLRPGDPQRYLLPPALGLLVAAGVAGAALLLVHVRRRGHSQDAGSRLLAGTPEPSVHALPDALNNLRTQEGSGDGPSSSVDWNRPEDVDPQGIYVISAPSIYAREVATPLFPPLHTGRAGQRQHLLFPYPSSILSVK

| DMS-153 TDCC EC50 | fold TDCC potency over the parental molecule DH43 | fold TDCC potency over the parental molecule DH6 | Binder |
| --- | --- | --- | --- |
| 0.049 nM | – | – | 2F11 anti-DLL3 trispecific protein (protein, not shown: large carriers) EVQLVESGGGLVQPGGSLTLSCVASGSVSSINAMGWYRRAPGKQRELVAGISSDGSKVYKDSVKGRFTISRDNAKNSVYLQMNSLRAEDTAVYYCYYFRTVSGSSMGYWGQGTLVTVSS |
| 0.063 nM | – | – | 2E05-M106Y anti-DLL3 trispecific protein (protein, not shown: large carriers) EVQLVESGGGLVQPGGSLTLSCVASGSPSSINAYGWYRRAPGKQRELVAGISSDGSKVYSDSVKGRFTISRDNAKNSVYLQMNSLRAEDTAVYYCYYFRTVSGSSYSYWGQGTLVTVSS |
| 0.041 nM | 6.6 fold | – | 2E05-M106Q anti-DLL3 trispecific protein (protein, not shown: large carriers) EVQLVESGGGLVQPGGSLTLSCVASGSPSSINAYGWYRRAPGKQRELVAGISSDGSKVYSDSVKGRFTISRDNAKNSVYLQMNSLRAEDTAVYYCYYFRTVSGSSQSYWGQGTLVTVSS |
| 0.054 nM | – | 4.4 fold | 4D09-M34L anti-DLL3 trispecific protein (protein, not shown: large carriers) EVQLVESGGGLVQPGGSLTLSCAASGSSVKFLSLAWYRQAPGKKRELVAGISADGSTDYILSVKGRFTISRDNAKNSVYLQMNSLRAEDTAVYYCYAYEWTTRYTYWGQGTLVTVSS |
| 0.13 nM | – | – | 4H11-M34L anti-DLL3 trispecific protein (protein, not shown: large carriers) EVQLVESGGGLVQPGGSLTLSCAASGSSVSRLSLAWYRQAPGKKRELVAGISVDGSTDYIDSVKGRFTISRDNAKNSVYLQMNSLRAEDTAVYYCYAYRWTTRLTYWGQGTLVTVSS |

— patent US20240141072A1
